The data set relates to ssAPC14.2 TALEN right monomer (Xanthomonas TALE-FokI (artificial)?). Briefly: cell_activity. Particulars: pair with p5; repeat 50%; pig fibroblasts.

Drawing on patent US20150067898, this text covers activity for one sequence.

Turning to “ACAGAAATTCTGGGT (double strand) [APC14.2 right half-site]”, the activity turned out to be 48 % HDR day 3.
